How the values were obtained:
Conditions in all cases: 20 nM; 72 h
MCF10A [1] = assay: one-nucleolus phenotype percent effect (relative to siNT 0% and siNOL11 100%); higher = more cells with one nucleolus (ribosome biogenesis inhibition)
Procedure: (§1)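 After 72 h, cells were fixed and stained with Hoechst and anti-fibrillarin, and nucleoli per nucleus were counted with CellProfiler. Values are plate-adjusted percent effect for the one-nucleolus and 5+ nucleoli phenotypes, normalised to siNT (0%) and to the positive controls siNOL11 or siKIF11 (100%), as the mean of biological triplicates. Percent viability is the nuclei count relative to siNT.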

hTERT RPE-1 = assay: nucleolar rRNA biogenesis percent inhibition (5-EU; siNT 0%, siPOLR1A 100%); higher = stronger inhibition of nucleolar rRNA biogenesis
Procedure: (§2)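 Primary screen hits (microRNA mimics) were re-picked and rescreened for nucleolar number in MCF10A cells (hitpick validation; percent effect relative to the siNT and siNOL11/siKIF11 controls). A secondary screen measured nucleolar rRNA biogenesis inhibition: after 72 h of transfection at 20 nM, cells were labelled 1 h with 1 mM 5-EU and nucleolar 5-EU signal was quantified, normalised to siNT (0%) and siPOLR1A (100%). Means are over n=5 (MCF10A) or n=2 (RPE-1, HeLa) biological replicates.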

HeLa = assay: as above
Procedure: as §2

MCF10A [2] = assay: as above
Procedure: as §2

MCF10A [3] = assay: 5+ nucleoli phenotype percent effect, hitpick validation (relative to siNT 0% and siKIF11 100%); higher = more cells with five or more nucleoli
Procedure: as §2

MCF10A [4] = assay: percent viability (nuclei count relative to siNT); higher = more viable cells
Procedure: as §1

MCF10A [5] = assay: one-nucleolus phenotype percent effect, hitpick validation (relative to siNT 0% and siNOL11 100%); higher = more cells with one nucleolus
Procedure: as §2

MCF10A [6] = assay: 5+ nucleoli phenotype percent effect (relative to siNT 0% and siKIF11 100%); higher = more cells with five or more nucleoli
Procedure: as §1

Sequence	one-nucleolus phenotype percent effect (MCF10A [1])	nucleolar rRNA biogenesis percent inhibition (hTERT RPE-1)	nucleolar rRNA biogenesis percent inhibition (HeLa)	nucleolar rRNA biogenesis percent inhibition (MCF10A [2])	5+ nucleoli phenotype percent effect (MCF10A [3])	percent viability (MCF10A [4])	one-nucleolus phenotype percent effect (MCF10A [5])	5+ nucleoli phenotype percent effect (MCF10A [6])
AAAGGAGGAAAUAGGCAGGCCA [hsa-miR-3173-3p]	67.7%	159%	25.3%	86.5%	-0.0263%	17.5%	84.3%	-35.7%
AAGGAGCUCACAGUCUAUUGAG [hsa-miR-28-5p]	69.4%	63.6%	60.9%	0.18%	-2.58%	39%	146%	-30.7%
AAGGAGCUUACAAUCUAGCUGGG [hsa-miR-708-5p]	120%	9.05%	48.6%	-26.3%	1.8%	27.9%	187%	-34.6%
ACCUUGGCUCUAGACUGCUUACU [hsa-miR-212-5p]	-30.9%	114%	95.9%	118%	91.8%	27.9%	-36.9%	164%
ACUCGGCGUGGCGUCGGUCGUG [hsa-miR-1307-3p]	66.2%	13.7%	40.2%	100%	-13.2%	39.9%	112%	-50.5%
AGAAGGCACUAUGAGAUUUAGA [hsa-miR-605-3p]	66.4%	-22.8%	23.1%	65%	-15.9%	43.9%	154%	-49.9%
AGAUCAGAAGGUGAUUGUGGCU [hsa-miR-383-5p]	68.7%	123%	129%	0.973%	-5.3%	14.2%	125%	-26.7%
AGCUUUUGGGAAUUCAGGUAGU [hsa-miR-3140-3p]	91.3%	33%	76.4%	6.44%	-14.2%	17.7%	159%	-25.9%
AGGCGGAGACUUGGGCAAUUG [hsa-miR-25-5p]	115%	45.2%	86.7%	75.3%	-9.31%	29.4%	182%	-48.5%
AGUUUUGCAGGUUUGCAUCCAGC [hsa-miR-19b-1-5p]	76.9%	-48.4%	92.7%	30.7%	-19.8%	26.2%	196%	-41.5%
CAAUCAGCAAGUAUACUGCCCU [hsa-miR-34a-3p]	83.5%	113%	-6.79%	70.2%	1.68%	25.6%	127%	-43.5%
CAGGUCGUCUUGCAGGGCUUCU [hsa-miR-431-3p]	84.4%	118%	115%	83.8%	-15.2%	35.3%	182%	-53.4%
CAUCUGGCAUCCGUCACACAGA [hsa-miR-3126-3p]	67%	50.7%	4.46%	22.1%	-8.87%	9.11%	105%	-5.56%
CGGCGGGGACGGCGAUUGGUC [hsa-miR-1908-5p]	93.7%	113%	68.5%	90.6%	-7.82%	40.6%	128%	-47.2%
CUCUUGAGGGAAGCACUUUCUGU [hsa-miR-526b-5p]	71.3%	75.9%	81.5%	130%	-6.22%	28.7%	81.9%	-54.5%
CUGCCAAUUCCAUAGGUCACAG [hsa-miR-192-3p]	70.5%	136%	37.7%	67.1%	-12.3%	62.7%	137%	-40.8%
CUUAUGCAAGAUUCCCUUCUAC [hsa-miR-491-3p]	73.6%	-86.4%	-3.33%	63.6%	-10.1%	15.5%	118%	-51.5%
GGCCAGCCACCAGGAGGGCUG [hsa-miR-3194-5p]	81.9%	50.9%	-11.3%	22.9%	4.28%	18.6%	199%	-36.9%
GGCGACAAAACGAGACCCUGUC [hsa-miR-1273c]	106%	–	–	31.6%	-8.2%	17.4%	205%	-32.6%
GGCUCCUCCUCUCAGGAUGUG [hsa-miR-4268]	-15.6%	–	–	133%	51.9%	41.5%	-21.2%	82.4%
GGCUGGGUGCUCUUGUGCAGU [hsa-miR-5589-5p]	71%	–	–	70%	21.5%	17.4%	92.2%	-4.52%
GUGUGUGGAAAUGCUUCUGC [hsa-miR-147a]	95.9%	–	–	61.8%	9.08%	18.3%	103%	-15.3%

Sequence	one-nucleolus phenotype percent effect (MCF10A [1])	nucleolar rRNA biogenesis percent inhibition (hTERT RPE-1)	nucleolar rRNA biogenesis percent inhibition (HeLa)	nucleolar rRNA biogenesis percent inhibition (MCF10A [2])	5+ nucleoli phenotype percent effect (MCF10A [3])	percent viability (MCF10A [4])	one-nucleolus phenotype percent effect (MCF10A [5])	5+ nucleoli phenotype percent effect (MCF10A [6])
GUUCUCCCAACGUAAGCCCAGC [hsa-miR-629-3p]	-34.6%	70.8%	55.5%	82.1%	96.3%	38.5%	-55.4%	238%
UAAGGCACGCGGUGAAUGCC [hsa-miR-124-3p]	70.4%	28.2%	91.7%	61.9%	18.1%	39.1%	139%	-14.4%
UAGGAGCUCAACAGAUGCCUGUU [hsa-miR-3139]	84.1%	–	–	5.86%	-8.78%	18.8%	181%	-23.5%
UAUGGCACUGGUAGAAUUCACU [hsa-miR-183-5p]	81%	204%	21.8%	33.5%	-0.696%	16.2%	101%	-24%
UCAUAGCCCUGUACAAUGCUGCU [hsa-miR-103b]	72.9%	–	–	47.6%	-15%	46.2%	144%	-32.5%
UCUCCCUUGAGGGCACUUU [hsa-miR-4287]	-43.1%	–	–	82.1%	70%	66%	-44.9%	200%
UCUCUGGGCCUGUGUCUUAGGC [hsa-miR-330-5p]	67.1%	109%	66.1%	65.2%	1.29%	17.8%	99.9%	-22.3%
UCUGCAGGGUUUGCUUUGAG [hsa-miR-1205]	96.8%	–	–	15.8%	-13.7%	20.5%	166%	-53.7%
UGAAGGUCUACUGUGUGCCAGG [hsa-miR-493-3p]	73%	108%	-1.09%	69.3%	4.11%	28%	126%	-34.3%
UGAAUGGUAAAGCGAUGUCACA [hsa-miR-4790-3p]	71.6%	–	–	105%	-2.28%	32.2%	78.8%	-42.5%
UGCCUGUCUACACUUGCUGUGC [hsa-miR-214-5p]	93.5%	87.1%	32%	-8.48%	-11.5%	31.1%	122%	-42.1%
UGGAGUCCAGGAAUCUGCAUUUU [hsa-miR-1289]	78.3%	–	–	68.1%	-9.57%	20%	130%	-51.8%
UGGCAAGGAAAGAAGAGGAUCA [hsa-miR-6809-5p]	115%	–	–	69.8%	-2.51%	9.15%	207%	-45.7%
UGGCAGUGUCUUAGCUGGUUGU [hsa-miR-34a-5p]	11.2%	52.6%	37.7%	72.2%	19.4%	11.9%	28.9%	-14.4%
UGGUCUGCAAAGAGAUGACUGU [hsa-miR-4527]	104%	–	–	67.3%	-1.79%	12.3%	151%	-39.4%
UGGUUCUAGACUUGCCAACUA [hsa-miR-182-3p]	97.2%	173%	9.57%	64.6%	-12.4%	17.5%	165%	-35.8%
UGUCCUCUAGGGCCUGCAGUCU [hsa-miR-3909]	93.1%	66.8%	74.5%	42.9%	-15.4%	25.5%	196%	-34.2%
UGUGUGGAUCCUGGAGGAGGCA [hsa-miR-3911]	70.3%	–	–	53.8%	-10.6%	12.9%	129%	-47%
UUCUCCCACUACCAGGCUCCCA [hsa-miR-4713-5p]	-12.1%	–	–	82.4%	43%	32.9%	-22.9%	95.9%
UUGCACUUGUCUCAGUGA [hsa-miR-4325]	70.8%	–	–	104%	3.45%	15.7%	84.2%	-30.4%
UUUGCAGUAACAGGUGUGAGCA [hsa-miR-6516-5p]	80.3%	–	–	48.6%	-19.1%	23.8%	142%	-40.6%
UUUGGGACUGAUCUUGAUGUCU [hsa-miR-3913-5p]	-47.3%	–	–	84.5%	61%	69.2%	-50.6%	132%
